One substance from PMC4735842 can be followed below.

In this assay the target is Cereolysin O (CLO) of Bacillus cereus ATCC 11778 (BC1) (Bacillus cereus ATCC 11778 (endogenous in the culture)). Nature of the assay: SDS-PAGE with Western blot; retentates of BC1 microaerobic culture supernatants (grown with or without 1 g/L BSA, 3 kDa cut-off filter); boiled 5 min in Laemmli buffer with 50 mM DTT; 4-20% Tris-Glycine gel; blot with rabbit anti-streptolysin O antibody. For orientation: In western blotting, separated proteins are transferred to a membrane and probed.

For the substance “Cereolysin O (CLO) of Bacillus cereus ATCC 11778 (BC1) (natural protein)”, the stoichiometry N was 2.

The stoichiometry N is the number of molecules, sites or subunits per partner or assembly.
